Test: yeast display, Sf9 membrane polyspecificity reagent, FACS + sequencing; frameworks hold sequencing errors
In short: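 Using colony PCR, genes from sorted yeast display clones were amplified, then sequenced on MiSeq at 2 × 250 and filtered by CDR length. The clones had been stained with 10% biotinylated, detergent-solubilized Sf9 membrane reagent for 1 hour at 4 °C and sorted by FACS into low and high (top ~1%) gates on anti-HA and streptavidin fluorescence. Polyreactivity labels come from the gate of origin.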

Sequence | polyreactivity (PSR sort gate)
QVQLVESGGGLVQAGGSLRLSCAASVSIFISYAMGWYRQAPGKERELVAAISSGGSTNYADSVKGRFTISRDNAKNTVYLQMNSLKPEDTAVYYCAADGWLWSFTGDGWWFDDWGQGTQVTVSS | low polyreactivity
QVQLVESGGGLVQAGGSLRLSCAASVSIFRVNTMGWYRQAPGKERELVATISSGARTNYADSVKGRFSISRDNAKNTVYLQMNSLKPEDTAVYYCATRYRRVYTWYDYWGQGTQVTVSS | high polyreactivity
QVQLVESGGGLVQAGGSLRLSCAASVSIFTAYPRGWYRQAPGKERELVAAISNGGSTYYADSVKGRFTISRDNAKNTVYLQMNSLKQEDTAVYYCAADSVQFQPDDEYWGQGTQVTVSS | low polyreactivity
QVQLVESGGGLVQAGGSLRLSCAASVSIFWSYAMGWSRLAPGKERELVASISRSTGRTRYADSVKGRFTFSRDNAKNTVDLQMNSLKPEDTAVYYCNAEKRGQSYRFDYWGQGTQVTVSS | high polyreactivity
QVQLVESGGGLVQAGGSLRLSCAASVSIFYRNARGWYRQEPGKEREMVAAISSSVSSTYYADSVKGRFTISRDNAKNTVYLQMNSLKPEDTAVYYCAARRFQRGGDYFYRYLYDYWGQGTQVTVSS | low polyreactivity
QVQLVESGGGLVQAGGSLRLSCAASVSTFSTYAMGWYRQAPGKERELVAASTWRGSSTYYADSVKGRFTISRDNAKKTVYLQMNSLKPEDTAVYYCAAEDTFYEYYYWGQGTQVTVSS | high polyreactivity
QVQLVESGGGLVQAGGSLRLSCAASVSTFVGNAMGWYRQAPGKERELHAAISSGGSRTNYADSVKGRFTISRDNAKNTVYLQMNSLKPEDTAVYYCIAVFPRWQGSGRFAGGDYWGQGTQVTLSS | high polyreactivity
QVQLVESGGGLVQAGGSLRLSCAASVSTFYRNAMGWYRQAPGKERELVADISASGGSTYYADSVKGRFTISRDNAKNTVYLQMNSLKPEDTAVYYCNALYFYFYNYLTIVYWGQGTQVSVSS | low polyreactivity
QVQLVESGGGLVQAGGSLRLSCAASVSTVSYNAMGWYRQAPGKERELVAAISGSGGTTYYADSVKGRFTISRDNAKNTVYLQMNSLKPEDTAVYYCAARPFRSWRYDYWGQGTQVTVSS | low polyreactivity
QVQLVESGGGLVQAGGSLRLSCAASVYTSSLNAMGWYRQAPGKERELVARITTDGTSTYYADSVKGRFTISRDNAKNTVYLQMNSLKPEDTAVYYCNARYPAYGVRSWYPYAYYYWGQGTQVTVSS | low polyreactivity
QVQLVESGGGLVQAGGSLRLSCAASVYTVVWYAMGWYRPAPGKERELVAVITSGGGTNYADSVKGRFTISRDNAKNTVYLQMNSLKPEDTAVYYCAAVWYTSRQKYDYWGQGTQVTVSS | low polyreactivity
QVQLVESGGGLVQAGGSLRLSCAASYAMGGYRQAPGKERELVAGISRSGDITYYADSVKGRFTISRDNAKNTVYLQMNSLKPEDTAVYYCAARQGRYSGRQLFYWGQGTQVTVSS | high polyreactivity
QVQLVESGGGLVQAGGSLRLSCAATGFIFPKYAMGWYSKAPGKERELVAAISKSGGRTYYADSVKGRFTISRDNAKNTVYLQMNSLKPEDTAVYYCAAEFTYEGDSWGQGTQVTVSS | high polyreactivity
QVQLVESGGGLVQAGGSLRLSCAATGFTFSRNTMGWYRQAPGKERELGARITKRGGTTYYADSVKGRFTISRDNAKNTVYLQMNCLKPEDSAVYYCAAATQNPGSDYWGQGTQVTVSS | high polyreactivity
QVQLVESGGGLVQAGGSLRLSCAATGFTFVYYAMGWYRPAPGKERELVAAISSSGTRTYYADSVKGRFTISRDNAKNTVYLQMNSLKPEDTAVYFCAARNTYRTKVDYWGQGTQVTVSS | high polyreactivity
QVQLVESGGGLVQAGGSLRLSCAATGFTLTRNAMGWYRQAPGKERELVAAISWSGGTTYYADSVKGRFTISRDNAKNTFYLQMNSLKPEDTAVYYCAALRYKLPLGYWGQGTQVTVSS | high polyreactivity
QVQLVESGGGLVQAGGSLRLSCAATGIFVVYAMGWYREAPGKERELVAAIRSDASTNYADSVKGRFTISRDNAKNTVYLQMNILKPEDTAVYYCNTAQLVSDEFDYWGQGTQVTVSS | low polyreactivity
QVQLVESGGGLVQAGGSLRLSCAATGITFIVYVMGWYRQAPGKERELFATISYDDSTYADSVKGSFTISRDNAKNTVYLQMNSLKPEDTAVYYDYWGQGTQVTVSS | low polyreactivity
QVQLVESGGGLVQAGGSLRLSCAATGITFRYNAMGWYRLAPGKERELVAAITFSGGSTYYADSVKGRFTISRDNAKNTVYLQMNSLKPEDTAVYYCAKLGSTSSRGNYDYWGQGTQVTVSS | low polyreactivity
QVQLVESGGGLVQAGGSLRLSCAATGLTLKENVMGWYRQAPGKERELVAAISTGASTYYADSVKGRFTISRDNAKNTVYLQMNSLKPEDTAVYYCAKRVTRCYGYWGQGTQVTVSS | high polyreactivity
QVQLVESGGGLVQAGGSLRLSCAATGLTVRYYTMGWYRQAPGKERELVASITIRGGSTYYADSVKGRFTISRDNAKNTVYLQMNSLKAEDTAVYYCNTRYGYSFGYWGQGTQVTVSS | high polyreactivity
QVQLVESGGGLVQAGGSLRLSCAATGNTFTYNTMGWYRQAPGKERELVARITFSAGRTYYADSVKGRFTISRDNAKNTVYLQMNSLKPEDTAVYYCAAYSFGLRSYYLYDYWGQGTEVTVSS | high polyreactivity
QVQLVESGGGLVQAGGSLRLSCAATGRIFGQYAMGWYRQAPGKESDFVAVISKRGGRTYYADSVMGRFTISRDNAKNTVYLQMNSLKPEDTAVYYCAAEYYPHDGAQYEYWGQGTQVTVSS | high polyreactivity
QVQLVESGGGLVQAGGSLRLSCAATGRIFHGYAMGWYRQAPGKERELVAAIDEDGGSTYYADSVKGRFTISRDNAKNTVYLQMNSLKPVDTAVYYCNADCSVRLDGFDYWGQGTQVTVSS | low polyreactivity
QVQLVESGGGLVQAGGSLRLSCAATGRIFIDNTMGWYRQAPGKERELVAAISWSGGSTYYADSVKGRFTISRDNAKNTVYLQMNCLKPEDTAVYYCAARRLRSNGRTWAVTYDYWGQGTQVTVSS | low polyreactivity
QVQLVESGGGLVQAGGSLRLSCAATGRIFSFYAMGWYRQAPGKERELVAAITWGDGSTYYAVSVKGRFTISRDNAKNTVYLQMNSLKPEDTAVYYCNKTYIDTTVYDVIMDYWGQGTQVTVSS | low polyreactivity
QVQLVESGGGLVQAGGSLRLSCAATGRISVFYTMRWYRQPPGKATELVAVIRTSVGRTNYADYVKGRFTISRVNAKNTVYLQMNSLKPEDTAVYYCAAGVVSYGYNYYYWGQGTQVTVSS | low polyreactivity
QVQLVESGGGLVQAGGSLRLSCAATGRTFGYSPMGSYRPAPGKERELVAAISRRGGSTYYADSVKGRFIISRDNAKNTVYLQMNSLKPEDTAVYYCAKGHQWGLKGGYDYWGQGTQVTVSS | high polyreactivity
QVQLVESGGGLVQAGGSLRLSCAATGRTFSGNAMGWYRQAPAKERELVAAISRSGGTTYYADSVKGRFTISRDNAKNPVYLQMNSLKPEDTAVYYCNRGWANWLGPDDYWGQGNQVTVSS | high polyreactivity
QVQLVESGGGLVQAGGSLRLSCAATGSIFGIYTMGWDRQAPGKERELVAAIRRSGSTNYADSVKGRFTISRDNEKNTVYLQMNSLKPEDSAVYYCAADALSDEYDYWGQGTQVTVSS | low polyreactivity

— the nanobody polyreactivity screen of Harvey et al. (2022)
